Where two headings read alike, the source gives them in different places.

Series [1] concerns the target T1, Bovine serum albumin (BSA) (Bos taurus, UniProt P02769 25-607). Kind of series: SYBR Green I fluorescence titration.
Series [2] has as its target T1, Bovine serum albumin (BSA). The experiment in a line: SYBR Green I fluorescence titration. This is another data set of the same source.

T1 sequence (P02769 25-607): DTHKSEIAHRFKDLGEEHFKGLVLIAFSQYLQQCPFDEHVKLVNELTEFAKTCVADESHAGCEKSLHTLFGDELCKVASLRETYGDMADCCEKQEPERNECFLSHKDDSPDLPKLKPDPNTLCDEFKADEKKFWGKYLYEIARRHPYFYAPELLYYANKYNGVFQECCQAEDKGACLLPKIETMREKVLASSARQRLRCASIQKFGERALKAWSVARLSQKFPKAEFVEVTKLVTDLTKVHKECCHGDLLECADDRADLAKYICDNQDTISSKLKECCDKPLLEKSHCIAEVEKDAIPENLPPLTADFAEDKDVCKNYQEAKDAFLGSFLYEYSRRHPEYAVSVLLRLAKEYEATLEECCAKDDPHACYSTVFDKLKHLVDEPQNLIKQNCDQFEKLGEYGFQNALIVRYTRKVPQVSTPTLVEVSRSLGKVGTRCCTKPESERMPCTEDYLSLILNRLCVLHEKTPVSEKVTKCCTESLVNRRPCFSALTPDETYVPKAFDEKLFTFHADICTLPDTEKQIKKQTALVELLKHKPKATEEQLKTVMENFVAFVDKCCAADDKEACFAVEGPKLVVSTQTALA

B1: Ni_apt (ssDNA)
DNA: AAAAAAAAAAGCAGCACAGAGGTCAGATGGTATCGAGCGCAGGGCCGCCTTTGTT
As to B1, in series [1], the Kd is 120 nM.

B2: R_apt (ssDNA)
DNA: AGCAGCACAGAGGTCAGATGGTATCGAGCGCAGGGCCGCCTTTGTT
As for B2, the Kd in series [2] turned out to be 20 nM.

The record behind these values is publication doi:10.1101/2025.03.04.641353.
